The results in this text go back to patent publication US20100003756.

Assay in all cases: cell_activity
Data set [1] concerns ZFN SBS 17622 (BAK) (synthetic). As to conditions: pair 17622/17623, MDCK cells, CEL-I/Surveyor.
The subject of data set [2] is ZFN SBS 17627 (BAK) (synthetic). As to conditions: pair 17627/17626, MDCK cells, CEL-I/Surveyor.
The test system of data set [3] is ZFN SBS 10077 (BAX) (synthetic). As to conditions: BAX ZFNs of Table 1 (pair 10077/10079 inferred), Bak-deficient CHO, 21 of 79 clones Bsl I assay.
Data set [4] has as its system ZFN SBS 17623 (BAK) (synthetic). As to conditions: pair 17622/17623, MDCK cells, CEL-I/Surveyor.
Data set [5] relates to ZFN SBS 17626 (BAK) (synthetic). The following applies: pair 17627/17626, MDCK cells, CEL-I/Surveyor.
In data set [6] the test system is ZFN SBS 10079 (BAX) (synthetic). As to conditions: BAX ZFNs of Table 1 (pair 10077/10079 inferred), Bak-deficient CHO, 21 of 79 clones Bsl I assay.
The subject of data set [7] is ZFN SBS 17659 (BAX) (synthetic). As to conditions: pair 17658/17659, MDCK cells, CEL-I/Surveyor.
Data set [8] relates to ZFN SBS 17658 (BAX) (synthetic). The following applies: pair 17658/17659, MDCK cells, CEL-I/Surveyor.

In data set [1], “AATGATGCAGCATGA (double strand) [BAK 17622 half-site]” displayed an activity (% alleles modified) of 3.7. For “AGGGGTGGCTGGGTAG (double strand) [BAK 17627 half-site]”, the activity (% alleles modified) in data set [2] amounted to 1.1. In turn, “CAGGGTGGCTGG (double strand) [BAX 10077 half-site]” displayed an activity (% clones modified) in data set [3] of 27. “CCGGTGGATCGCGCAGAG (double strand) [BAK 17623 half-site]”: the activity (% alleles modified) in data set [4] was determined as 3.7. Consider “GATCCACCGGGCAATGCA (double strand) [BAK 17626 half-site]”, for which the activity (% alleles modified) in data set [5] is 1.1. Take “GATCCAGACAAG (double strand) [BAX 10079 half-site]”: the activity (% clones modified) in data set [6] is 27. In data set [7], “GGTTGGGTGAGGCCTG (double strand) [BAX 17659 half-site]” showed an activity (% alleles modified) of 8. Take “GTCCTGGATCCAGCC (double strand) [BAX 17658 half-site]”: the activity (% alleles modified) in data set [8] is 8.
